Data on four molecules can be found in paper PMC3784475 (PLoS Pathogens, 2013).

Bounds are passed on as bounds.

For test [1], the target named is HIV gp140 SF162 trimers (HIV (isolate SF162)). Description: SPR; HIV gp140 SF162 trimers amine-coupled on a CM5 chip (3250 RU); HCDR3-grafted Ubq fusions injected at 1 µM and 5 or 10 µM; HBS-EP+ (10 mM HEPES pH 7.4, 150 mM NaCl, 3 mM EDTA, 0.05% P20); 25°C; duplicate runs. In general terms: SPR reads the build-up and loss of mass on a sensor chip optically.
The target of test [2] is T1, Strep-tagged Scn control (Homo sapiens, UniProt P80188).
T1 construct: siderocalin (Scn), human; also called siderocalin construct minus peptide; not shown: Strep-tag, C-terminal, kept
Description: SPR; about 3000 RU of each Scn-peptide fusion or Strep-tagged Scn control amine-coupled on CM5 chips; 4E10 IgG injected at 300 nM in HBS-EP+ or HBS-EP+ at 500 mM NaCl; 25°C; responses normalised by specific activity. Particulars: both partners purified.

The Kd is the free concentration of one partner at which half of the binding sites on the other are occupied at equilibrium, for simple one-to-one binding. Read a low Kd as tighter binding. In test [1], “2F5 HCDR3-grafted ubiquitin fusion (designed binder)” had a Kd of more than 10 µM.

In turn, “4E10 HCDR3-grafted ubiquitin fusion (designed binder)” displayed a Kd in test [1] of more than 10 µM.

For the molecule “b12 HCDR3-grafted ubiquitin fusion (designed binder)”, in test [1], the Kd is more than 10 µM.

B1: 4E10 IgG (antibody, V domains shown)
VH: QVQLVQSGAEVKRPGSSVTVSCKASGGSFSTYALSWVRQAPGRGLEWMGGVIPLLTITNYAPRFQGRITITADRSTSTAYLELNSLRPEDTAVYYCAREGTTGWGWLGKPIGAFAHWGQGTLVTVSS
VL: EIVLTQSPGTQSLSPGERATLSCRASQSVGNNKLAWYQQRPGQAPRLLIYGASSRPSGVADRFSGSGSGTDFTLTISRLEPEDFAVYYCQQYGQSLSTFGQGTKVEVK
notes: variable domain in PDB 4LLV (4E10 Fv, solved here), 2FX7 (4E10 Fab) and 3H3P; IgG, the bivalent form; also called bNAb 4E10; Polymun AB004; source: bought: Polymun Scientific; copies: 2 + 2
Consider B1, for which the binding result in test [2] is “no binding (tested: 300 nM)”.
